These results are taken from patent US20240067728A1.

Assay [1] has as its target PD-L1-His antigen (human) (UniProt Q9NZQ7). As to the kind of experiment: SPR (Biacore T200), PD-L1-His immobilised on chip, antibody as mobile phase, 1:1 Binding fit. (SPR reads the build-up and loss of mass on a sensor chip optically.)
Assay [2] concerns the target PD-L1 on CHO-PD-L1 cells (Promega PD-1/PD-L1 Blockade Bioassay) (UniProt Q9NZQ7).

Sequence of PD-L1 on CHO-PD-L1 cells (Promega PD-1/PD-L1 Blockade Bioassay) (Q9NZQ7 19-290 limits assumed): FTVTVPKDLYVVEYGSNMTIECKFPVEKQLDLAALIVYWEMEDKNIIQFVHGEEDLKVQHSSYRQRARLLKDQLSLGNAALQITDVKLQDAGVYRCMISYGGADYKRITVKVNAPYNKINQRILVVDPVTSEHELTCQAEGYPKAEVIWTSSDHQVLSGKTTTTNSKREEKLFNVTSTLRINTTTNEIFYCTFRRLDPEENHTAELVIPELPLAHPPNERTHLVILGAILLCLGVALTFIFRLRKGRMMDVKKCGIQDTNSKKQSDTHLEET
Sequence of PD-L1-His antigen (human) (Q9NZQ7 other isoform, or with tags, fused parts or gaps limits assumed): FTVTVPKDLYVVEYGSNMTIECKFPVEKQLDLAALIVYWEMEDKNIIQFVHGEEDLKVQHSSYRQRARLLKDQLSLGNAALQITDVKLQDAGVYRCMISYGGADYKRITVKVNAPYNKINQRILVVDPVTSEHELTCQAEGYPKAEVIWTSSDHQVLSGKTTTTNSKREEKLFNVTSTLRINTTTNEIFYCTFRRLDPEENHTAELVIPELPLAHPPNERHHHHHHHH

The term Kd denotes the free concentration of one partner at which half of the binding sites on the other are occupied at equilibrium, for simple one-to-one binding. In assay [1], “ATE antibody (amino acid sequence identical to atezolizumab)” gave a Kd of 1.84 nM. Besides, in assay [2], the EC50 (luciferase reporter, PD-1/PD-L1 blockade MOA assay; blocked partner: PD-1 on Jurkat-PD1 cells) is 0.087 µg/mL.
